Patent US20240218065A1 (SHENGHE CHINA BIOPHARMACEUTICAL, published 2024)
Like-named read-outs stand apart in the source and are kept apart here.

T1: Human-NKP30-His (Kactus, cat: NKP-HM430) (human, UniProt O14931 19-138, limits assumed)
T1 construct: also called NKP30 protein; NKP30-his protein; not shown: His tag
T1 sequence (looked up): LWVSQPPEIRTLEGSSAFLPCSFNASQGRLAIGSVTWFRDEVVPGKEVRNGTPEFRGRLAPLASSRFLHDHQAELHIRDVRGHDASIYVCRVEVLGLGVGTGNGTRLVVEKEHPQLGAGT


Tests used:
[1] = target: T1, Human-NKP30-His (Kactus, cat: NKP-HM430); assay: ELISA: Human-NKP30-His coated, antibody titrated 3-fold from 10 µg/mL, HRP goat anti-human IgG-Fc, OD450-OD570
Description: Human-NKP30-His (Kactus, cat: NKP-HM430) was diluted to […] with PBS buffer at pH 7.4, added into the 96-well ELISA plate at 100 μL per well, coated overnight at 4° C., and blocked with 1% BSA blocking solution for 1 hour. The plate was washed 3 times with PBST, and the constructed antibodies were diluted to 10 μg/mL with 0.5% BSA sample diluent as the starting concentration, and then diluted by 3-fold gradient (11 gradients in total). A negative control (blank well and IgG1 isotype control) and a positive control were set, and the positive control was a NKP30 humanized antibody (sequence shown in SEQ ID No. 28), and incubated at 37° C. for 1 h at 100 μL per well. The plate was washed 3 times with PBST, and then HRP-labelled goat anti-human IgG-Fc was diluted with the sample diluent at 1:20000. 100 μL was added into each well, and incubated at room temperature for 1 hour. The plate was washed 4 times with PBST, and 100 μL of TMB substrate was added into each well, and incubated at room temperature without light for 10 minutes. 100 μL of 1 M HCl solution was added into each well to terminate the color development reaction. The absorbance value of each well in the 96-well plate was determined by selecting the wavelength of 450 nm and the reference wavelength of 570 nm on a multifunctional enzyme marker, and the absorbance value (OD)=OD₄₅₀ₙₘ−OD₅₇₀ₙₘ. The logarithm of the concentration of the constructed antibody was taken as the abscissa, and the measured absorbance value of each well was taken as the ordinate, and the Sigmoidaldose-response (Variable Slope) method (GraphPad Prism software, GraphPad Software, San Diego, California) was selected for nonlinear regression to obtain the binding curve of the target antibody to NKP30.

Human-GPC3-His [2] = target: T2, Human-GPC3-His (human, UniProt P51654 25-559, limits assumed); assay: ELISA: Human-GPC3-His coated at 0.5 µg/mL, antibody titrated 3-fold from 10 µg/mL, HRP goat anti-human IgG-Fc, OD450-OD570
T2 construct: Coated on the ELISA plate; also called GPC-3 protein; GPC3 protein; not shown: His tag
T2 sequence (P51654 25-559 limits assumed): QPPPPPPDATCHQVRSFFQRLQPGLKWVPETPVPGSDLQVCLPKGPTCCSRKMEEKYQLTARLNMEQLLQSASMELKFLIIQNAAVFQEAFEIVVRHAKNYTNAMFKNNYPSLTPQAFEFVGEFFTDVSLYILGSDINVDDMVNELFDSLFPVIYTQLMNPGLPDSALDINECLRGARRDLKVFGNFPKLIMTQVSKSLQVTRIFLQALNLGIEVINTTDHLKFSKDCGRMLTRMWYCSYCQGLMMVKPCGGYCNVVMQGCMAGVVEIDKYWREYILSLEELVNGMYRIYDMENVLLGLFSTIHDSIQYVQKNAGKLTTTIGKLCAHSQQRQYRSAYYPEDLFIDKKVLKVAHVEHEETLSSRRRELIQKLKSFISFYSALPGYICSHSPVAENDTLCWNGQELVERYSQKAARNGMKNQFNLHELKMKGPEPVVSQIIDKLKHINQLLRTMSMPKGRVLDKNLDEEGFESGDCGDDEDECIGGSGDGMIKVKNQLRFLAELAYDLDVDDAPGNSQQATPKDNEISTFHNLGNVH
Description: (§1) Human-GPC3-His was diluted to 0.5 μg/mL with PBS buffer at pH 7.4, added into the 96-well ELISA plate at 100 μL per well, coated overnight at 4° C., and blocked with 1% BSA blocking solution for 1 hour. The plate was washed 3 times with PBST, and the constructed antibody was diluted to 10 μg/mL with 0.5% BSA sample diluent as the starting concentration, and then diluted by 3-fold gradient (11 gradients in total) and incubated at 37° C. for 1 h at 100 μL per well. The plate was washed 3 times with PBST, and then HRP-labelled goat anti-human IgG-Fc was diluted with the sample diluent at 1:20000. 100 μL was added into each well, and incubated at room temperature for 1 hour. A negative control (blank well and IgG1 isotype control) and a positive control were set, and the positive control was a GPC-3 and CD3 bispecial antibody from the literature Hs, A, et al. “Engineering a bispecific antibody with a common light chain: Identification and optimization of an anti-CD3 epsilon and anti-GPC3 bispecific antibody, ERY974.” Methods 154 (2019): 10-20. (The GPC-3 and CD3 bispecial antibody sequence consists of SEQ ID No. 22, SEQ ID No. 23, and SEQ ID No. 24). The plate was washed 4 times with PBST, and 100 μL of TMB substrate was added into each well, and incubated at room temperature without light for 10 minutes. 100 μL of 1 M HCl solution was added into each well to terminate the color development reaction. The absorbance value of each well in the 96-well plate was determined by selecting the wavelength of 450 nm and the reference wavelength of 570 nm on a multifunctional enzyme marker, and the absorbance value (OD)=OD₄₅₀ₙₘ−OD₅₇₀ₙₘ. The logarithm of the concentration of the constructed antibody was taken as the abscissa, and the measured absorbance value of each well was taken as the ordinate, and the Sigmoidaldose-response (Variable Slope) method (GraphPad Prism software, GraphPad Software, San Diego, California) was selected for nonlinear regression to obtain the binding curve of the target antibody to the GPC-3 protein.

Human-GPC3-His [3] = target: T2, Human-GPC3-His; assay: as above; remark: listed apart in the source
Description: as §1

Binder	EC50 (read off the curve) [1]	EC50 (read off the curve) (Human-GPC3-His [2])	EC50 (read off the curve) (Human-GPC3-His [3])
GN15-D (bispecific antibody, human IgG1, kappa, Trifunctional antibody against GPC-3 and NKP30 with IL-15 and IL-15Rα sushi between CH1 and CH2; also called constructed antibody GN15-D; multifunctional antibody) light: DVVMTQSPLSLPVTPGEPASISCRSSQSLVHSNRNTYLHWYLQKPGQSPQLLIYKVSNRFSGVPDRFSGSGSGTDFTLKISRVEAEDVGVYYCSQNTHVPPTFGQGTKLEIKRTVAAPSVFIFPPSDEQLKSGTASVVCLLNNFYPREAKVQWKVDNALQSGNSQESVTEQDSKDSTYSLSSTLTLSKADYEKHKVYACEVTHQGLSSPVTKSFNRGEC heavy 1: not shown heavy 2: QVQLVQSGAEVKKPGASVKVSCKASGYTFTDYEMHWVRQAPGQGLEWMGALDPKTGDTAYSQKFKGRVTLTADKSTSTAYMELSSLTSEDTAVYYCTRFYSYTYWGQGTLVTVSSASTKGPSVFPLAPSSKSTSGGTAALGCLVKDYFPEPVTVSWNSGALTSGVHTFPAVLQSSGLYSLSSVVTVPSSSLGTQTYICNVNHKPSNTKVDKKVEPKSCDKTHTCPPCPGGGGSGGGGSPALLLLLLLRPPATRGITCPPPMSVEHADIWVKSYSLYSRERYICNSGFKRKAGTSSLTECVLNKATNVAHWTTPSLKCIRDPALVHQRPAPPSTVTTAGVTPQPESLSPSGKEGGGGSGGGGSAPELLGGPSVFLFPPKPKDTLMISRTPEVTCVVVDVSHEDPEVKFNWYVDGVEVHNAKTKPREEQYNSTYRVVSVLTVLHQDWLNGKEYKCKVSNKALPAPIEKTISKAKGQPREPQVYTLPPSRDELTKNQVSLTCLVKGFYPSDIAVEWESNGQPENNYKTTPPVLDSDGSFFLASKLTVDKSRWQQGNVFSCSVMHEALHNHYTQKSLSLSPGKGGGGSGGGGSGGGGSGGGGSEVQLVESGGGLVQPGGSLRLSCAASGITFSRSVMGWFRQAPGKLRELVAGITSDDNTDYADSVKGRFTISRDNSKNTLYLQMNSLRAEDTAVYYCNILPDSRLGWGQGTLVTVSS	~0.03 µg/mL	~0.04 µg/mL	–
GN15-B (bispecific antibody, human IgG1, kappa, Trifunctional antibody against GPC-3 and NKP30 with IL-15 and IL-15Rα sushi between CH1 and CH2; also called constructed antibody GN15-B; multifunctional antibody) light: DVVMTQSPLSLPVTPGEPASISCRSSQSLVHSNRNTYLHWYLQKPGQSPQLLIYKVSNRFSGVPDRFSGSGSGTDFTLKISRVEAEDVGVYYCSQNTHVPPTFGQGTKLEIKRTVAAPSVFIFPPSDEQLKSGTASVVCLLNNFYPREAKVQWKVDNALQSGNSQESVTEQDSKDSTYSLSSTLTLSKADYEKHKVYACEVTHQGLSSPVTKSFNRGEC heavy 1: not shown heavy 2: EVQLVESGGGLVQPGGSLRLSCAASGITFSRSVMGWFRQAPGKLRELVAGITSDDNTDYADSVKGRFTISRDNSKNTLYLQMNSLRAEDTAVYYCNILPDSRLGWGQGTLVTVSSGGGGSGGGGSGGGGSQVQLVQSGAEVKKPGASVKVSCKASGYTFTDYEMHWVRQAPGQGLEWMGALDPKTGDTAYSQKFKGRVTLTADKSTSTAYMELSSLTSEDTAVYYCTRFYSYTYWGQGTLVTVSSASTKGPSVFPLAPSSKSTSGGTAALGCLVKDYFPEPVTVSWNSGALTSGVHTFPAVLQSSGLYSLSSVVTVPSSSLGTQTYICNVNHKPSNTKVDKKVEPKSCDKTHTCPPCPGGGGSGGGGSPALLLLLLLRPPATRGITCPPPMSVEHADIWVKSYSLYSRERYICNSGFKRKAGTSSLTECVLNKATNVAHWTTPSLKCIRDPALVHQRPAPPSTVTTAGVTPQPESLSPSGKEGGGGSGGGGSAPELLGGPSVFLFPPKPKDTLMISRTPEVTCVVVDVSHEDPEVKFNWYVDGVEVHNAKTKPREEQYNSTYRVVSVLTVLHQDWLNGKEYKCKVSNKALPAPIEKTISKAKGQPREPQVYTLPPSRDELTKNQVSLTCLVKGFYPSDIAVEWESNGQPENNYKTTPPVLDSDGSFFLASKLTVDKSRWQQGNVFSCSVMHEALHNHYTQKSLSLSPGK	~0.03 µg/mL	–	~0.03 µg/mL
GN15-C (bispecific antibody, human IgG1, kappa, Trifunctional antibody against GPC-3 and NKP30 with IL-15 and IL-15Rα sushi between CH1 and CH2; also called constructed antibody GN15-C; multifunctional antibody) light: DVVMTQSPLSLPVTPGEPASISCRSSQSLVHSNRNTYLHWYLQKPGQSPQLLIYKVSNRFSGVPDRFSGSGSGTDFTLKISRVEAEDVGVYYCSQNTHVPPTFGQGTKLEIKRTVAAPSVFIFPPSDEQLKSGTASVVCLLNNFYPREAKVQWKVDNALQSGNSQESVTEQDSKDSTYSLSSTLTLSKADYEKHKVYACEVTHQGLSSPVTKSFNRGECGGGGSGGGGSGGGGSGGGGSEVQLVESGGGLVQPGGSLRLSCAASGITFSRSVMGWFRQAPGKLRELVAGITSDDNTDYADSVKGRFTISRDNSKNTLYLQMNSLRAEDTAVYYCNILPDSRLGWGQGTLVTVSS heavy 1: not shown heavy 2: QVQLVQSGAEVKKPGASVKVSCKASGYTFTDYEMHWVRQAPGQGLEWMGALDPKTGDTAYSQKFKGRVTLTADKSTSTAYMELSSLTSEDTAVYYCTRFYSYTYWGQGTLVTVSSASTKGPSVFPLAPSSKSTSGGTAALGCLVKDYFPEPVTVSWNSGALTSGVHTFPAVLQSSGLYSLSSVVTVPSSSLGTQTYICNVNHKPSNTKVDKKVEPKSCDKTHTCPPCPGGGGSGGGGSPALLLLLLLRPPATRGITCPPPMSVEHADIWVKSYSLYSRERYICNSGFKRKAGTSSLTECVLNKATNVAHWTTPSLKCIRDPALVHQRPAPPSTVTTAGVTPQPESLSPSGKEGGGGSGGGGSAPELLGGPSVFLFPPKPKDTLMISRTPEVTCVVVDVSHEDPEVKFNWYVDGVEVHNAKTKPREEQYNSTYRVVSVLTVLHQDWLNGKEYKCKVSNKALPAPIEKTISKAKGQPREPQVYTLPPSRDELTKNQVSLTCLVKGFYPSDIAVEWESNGQPENNYKTTPPVLDSDGSFFLASKLTVDKSRWQQGNVFSCSVMHEALHNHYTQKSLSLSPGK	~0.05 µg/mL	–	~0.03 µg/mL
